Data reported in US20210388087A1 (Chugai, published 2021).

Target: T1, CD3 epsilon homodimer protein (UniProt P07766 23-126)
T1 construct: also called CD3 (CD3 epsilon)
Experiment: SPR Biacore T200, CD3e homodimer on chip, vs unaltered GLS3000 antibody
Procedure: An appropriate amount of CD3 epsilon homodimer protein was immobilized onto Sensor chip CM4 (GE Healthcare Japan Corp.) by the amine coupling method. Then, the antibody having an appropriate concentration was injected thereto as an analyte and allowed to interact with the CD3 epsilon homodimer protein on the sensor chip. Then, the sensor chip was regenerated by the injection of 10 mmol/L glycine-HCl (pH 1.5). The assay was conducted at 25 degrees C., and HBS-EP+(GE Healthcare Japan Corp.) was used as a running buffer. […] Each parameter was calculated using Biacore T200 Evaluation Software (GE Healthcare Japan Corp.).

T1 sequence (P07766 23-126): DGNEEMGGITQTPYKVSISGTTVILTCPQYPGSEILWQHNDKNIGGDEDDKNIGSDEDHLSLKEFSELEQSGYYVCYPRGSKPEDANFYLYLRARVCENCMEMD

| Binder | ratio of amounts bound (Z=Y/X) |
| --- | --- |
| GLS3000 H27dA (antibody, name in Kabat numbering, V domains shown, one-arm IgG as m2) VH: QVQLVESGGGVVQPGRSLRLSCAASGFTFSNAWMHWVRQAPGKGLEWVAQIKAKSNNYATYYAESVKGRFTISRDDSKNSLYLQMNSLKTEDTAVYYCRYVHYGAYYGVDAWGQGTTVTVSS VL: DIVMTQSPLSLPVTPGEPASISCRSSQSLVASNRNTYLHWYQQKPGQAPRLLIYKVSNRFSGVPDRFSGSGSGTDFTLKISRVEAEDVGVYYCGQGTQVPYTFGQGTKLEIK | 0.48 |
| GLS3000 F55A (antibody, name in Kabat numbering, V domains shown, one-arm IgG as m2) VH: QVQLVESGGGVVQPGRSLRLSCAASGFTFSNAWMHWVRQAPGKGLEWVAQIKAKSNNYATYYAESVKGRFTISRDDSKNSLYLQMNSLKTEDTAVYYCRYVHYGAYYGVDAWGQGTTVTVSS VL: DIVMTQSPLSLPVTPGEPASISCRSSQSLVHSNRNTYLHWYQQKPGQAPRLLIYKVSNRASGVPDRFSGSGSGTDFTLKISRVEAEDVGVYYCGQGTQVPYTFGQGTKLEIK | 1.13 |
| GLS3000 F55D (antibody, name in Kabat numbering, V domains shown, one-arm IgG as m2) VH: QVQLVESGGGVVQPGRSLRLSCAASGFTFSNAWMHWVRQAPGKGLEWVAQIKAKSNNYATYYAESVKGRFTISRDDSKNSLYLQMNSLKTEDTAVYYCRYVHYGAYYGVDAWGQGTTVTVSS VL: DIVMTQSPLSLPVTPGEPASISCRSSQSLVHSNRNTYLHWYQQKPGQAPRLLIYKVSNRDSGVPDRFSGSGSGTDFTLKISRVEAEDVGVYYCGQGTQVPYTFGQGTKLEIK | 0.65 |
| GLS3000 F55E (antibody, name in Kabat numbering, V domains shown, one-arm IgG as m2) VH: QVQLVESGGGVVQPGRSLRLSCAASGFTFSNAWMHWVRQAPGKGLEWVAQIKAKSNNYATYYAESVKGRFTISRDDSKNSLYLQMNSLKTEDTAVYYCRYVHYGAYYGVDAWGQGTTVTVSS VL: DIVMTQSPLSLPVTPGEPASISCRSSQSLVHSNRNTYLHWYQQKPGQAPRLLIYKVSNRESGVPDRFSGSGSGTDFTLKISRVEAEDVGVYYCGQGTQVPYTFGQGTKLEIK | 0.72 |

Target: T2, Human CD137 ECD (human)
T2 construct: also called 4-1BB
T2 sequence (chain, as listed by the source limits assumed): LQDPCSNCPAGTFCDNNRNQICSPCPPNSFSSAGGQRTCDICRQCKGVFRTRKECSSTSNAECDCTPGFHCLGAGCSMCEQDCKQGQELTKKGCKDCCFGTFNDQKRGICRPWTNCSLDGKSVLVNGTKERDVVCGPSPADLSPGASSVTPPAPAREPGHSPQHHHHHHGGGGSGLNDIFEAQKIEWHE
Experiment: single mutant vs template dBBDu183H

| Binder | fold change of affinity [fold] |
| --- | --- |
| H183/L072 VH Y97I (antibody, name in Kabat numbering, V domains shown) VH: QVQLVESGGGLVQPGRSLRLSCAASGFTFSNAWMHWVRQAPGKGLEWVAQIKDKGNAYAAYYAPSVKGRFTISRDDSKNSIYLQMNSLKTEDTAVYYCHYVHIASASTVLPAFGVDAWGQGTTVTVSS VL: DIVMTQSPLSLPVTPGEPASISCQASQELVHMNRNTYLHWYQQKPGQAPRLLIYKVSNRFPGVPDRFSGSGSGTDFTLKISRVEAEDVGVYYCAQGTSVPFTFGQGTKLEIK | 0 |
| H183/L072 VH Y97M (antibody, name in Kabat numbering, V domains shown) VH: QVQLVESGGGLVQPGRSLRLSCAASGFTFSNAWMHWVRQAPGKGLEWVAQIKDKGNAYAAYYAPSVKGRFTISRDDSKNSIYLQMNSLKTEDTAVYYCHYVHMASASTVLPAFGVDAWGQGTTVTVSS VL: DIVMTQSPLSLPVTPGEPASISCQASQELVHMNRNTYLHWYQQKPGQAPRLLIYKVSNRFPGVPDRFSGSGSGTDFTLKISRVEAEDVGVYYCAQGTSVPFTFGQGTKLEIK | 0 |
| H183/L072 VH Y97L (antibody, name in Kabat numbering, V domains shown) VH: QVQLVESGGGLVQPGRSLRLSCAASGFTFSNAWMHWVRQAPGKGLEWVAQIKDKGNAYAAYYAPSVKGRFTISRDDSKNSIYLQMNSLKTEDTAVYYCHYVHLASASTVLPAFGVDAWGQGTTVTVSS VL: DIVMTQSPLSLPVTPGEPASISCQASQELVHMNRNTYLHWYQQKPGQAPRLLIYKVSNRFPGVPDRFSGSGSGTDFTLKISRVEAEDVGVYYCAQGTSVPFTFGQGTKLEIK | 0 |
| H183/L072 VH Y97P (antibody, name in Kabat numbering, V domains shown) VH: QVQLVESGGGLVQPGRSLRLSCAASGFTFSNAWMHWVRQAPGKGLEWVAQIKDKGNAYAAYYAPSVKGRFTISRDDSKNSIYLQMNSLKTEDTAVYYCHYVHPASASTVLPAFGVDAWGQGTTVTVSS VL: DIVMTQSPLSLPVTPGEPASISCQASQELVHMNRNTYLHWYQQKPGQAPRLLIYKVSNRFPGVPDRFSGSGSGTDFTLKISRVEAEDVGVYYCAQGTSVPFTFGQGTKLEIK | 0 |
